Patent US7067474B1, “Agents for treating human illnesses based on β-catenin, and the production and use thereof” (Max-Delbruck-Centrum fur Molekulare Medizin, priority 1998, dated 2006)

Assays:
[1] = target: T1, human β-catenin (Leu218-Leu781) mutant Lys 292 to alanine, Gal-4 activation domain fusion (human, UniProt P35222 218-781); experiment: yeast 2-hybrid; - means 60-100% of the wild type interaction
T1 sequence: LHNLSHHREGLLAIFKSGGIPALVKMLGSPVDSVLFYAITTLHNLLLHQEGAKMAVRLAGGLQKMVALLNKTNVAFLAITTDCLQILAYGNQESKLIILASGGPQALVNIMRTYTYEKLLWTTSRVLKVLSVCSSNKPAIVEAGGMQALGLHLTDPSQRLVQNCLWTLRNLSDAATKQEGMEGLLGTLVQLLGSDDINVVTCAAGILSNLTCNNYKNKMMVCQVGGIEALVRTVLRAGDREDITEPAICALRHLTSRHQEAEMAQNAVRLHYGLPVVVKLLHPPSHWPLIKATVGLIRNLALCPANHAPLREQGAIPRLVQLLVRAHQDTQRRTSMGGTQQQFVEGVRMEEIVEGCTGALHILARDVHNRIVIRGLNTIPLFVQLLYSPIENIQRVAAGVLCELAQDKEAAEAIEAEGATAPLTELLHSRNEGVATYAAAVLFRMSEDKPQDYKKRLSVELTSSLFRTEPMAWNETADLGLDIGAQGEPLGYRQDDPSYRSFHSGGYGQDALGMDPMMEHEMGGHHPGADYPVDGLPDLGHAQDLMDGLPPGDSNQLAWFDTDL
Method: (§1) 4. Preparation and testing of mutants of β-catenin modulating the interaction with LEF-1, APC, conductin or E-cadherin The mutagenesis of β-catenin in the armadillo repeats 3–8 was carried out by means of the "mutagenesis kit" of the company Clontech according to the producer's record and the mutants were checked by sequencing (FIG. 5). In all mutants the original amino acid was substituted by alanine. For analyzing the interactions the cDNA of human β-catenin (armadillo repeat 3 up to the C-terminal end of the protein) coding for the amino acids Leu218–Leu7 µl or its mutants was cloned into the fusion vector for the activation domain of Gal-4 (pGAD424, Clontech). The cDNA for the binding domains of the interaction partners was cloned into the Lex-A fusion vector BTM 116. To this end, the cDNA of LEF-1 for the amino acids 1–99, conductin for the amino acids Ala342–ARG465; of human APC for the amino acids His1012–Glu1215 (APC 15 amino acid repeats) and for the amino acids Ser1259Asp 1400 (APC 20 amino acid repeats) and E-cadherin for the amino acids Gin773–Asp884 (cytoplasmatic domain) were amplified with the respective primers PCR. The interaction of the Lex-A hybrids with β-catenin and its mutants was quantified by means of the β-galactosidase reporter activity in the yeast 2-hybrid system (report: "Matchmaker". Clontech) (Tab. 2 and FIG. 6).

[2] = target: T2, human β-catenin (armadillo repeat 3 up to the C-terminal end, Leu218-Leu781) fused to the activation domain … (human, UniProt P04386 768-881; P35222 218-781); experiment: yeast 2-hybrid; wild type is the 100% reference of Table 2
T2 construct: Order of the fusion follows the vector; also called wild type β-catenin
T2 sequence (looked up): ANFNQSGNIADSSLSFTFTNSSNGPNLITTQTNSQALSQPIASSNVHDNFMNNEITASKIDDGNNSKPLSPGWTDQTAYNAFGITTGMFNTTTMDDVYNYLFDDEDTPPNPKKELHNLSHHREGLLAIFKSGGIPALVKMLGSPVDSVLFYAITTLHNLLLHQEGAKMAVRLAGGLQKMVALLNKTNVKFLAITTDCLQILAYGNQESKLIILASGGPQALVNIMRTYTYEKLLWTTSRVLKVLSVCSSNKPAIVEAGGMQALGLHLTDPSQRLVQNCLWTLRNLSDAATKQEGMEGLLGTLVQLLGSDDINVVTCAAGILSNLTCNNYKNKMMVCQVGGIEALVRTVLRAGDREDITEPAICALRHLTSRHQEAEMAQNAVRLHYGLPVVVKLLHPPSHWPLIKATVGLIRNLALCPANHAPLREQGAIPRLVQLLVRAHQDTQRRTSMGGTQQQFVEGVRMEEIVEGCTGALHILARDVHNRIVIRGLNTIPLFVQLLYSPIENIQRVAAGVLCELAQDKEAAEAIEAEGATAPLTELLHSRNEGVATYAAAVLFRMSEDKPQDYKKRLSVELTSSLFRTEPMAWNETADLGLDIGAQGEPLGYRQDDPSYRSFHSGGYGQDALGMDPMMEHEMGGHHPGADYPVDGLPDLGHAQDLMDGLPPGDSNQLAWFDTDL
Method: as §1

[3] = target: T3, human β-catenin (Leu218-Leu781) mutant His 470 to alanine, Gal-4 activation domain fusion (human, UniProt P35222 218-781); experiment: yeast 2-hybrid
T3 sequence: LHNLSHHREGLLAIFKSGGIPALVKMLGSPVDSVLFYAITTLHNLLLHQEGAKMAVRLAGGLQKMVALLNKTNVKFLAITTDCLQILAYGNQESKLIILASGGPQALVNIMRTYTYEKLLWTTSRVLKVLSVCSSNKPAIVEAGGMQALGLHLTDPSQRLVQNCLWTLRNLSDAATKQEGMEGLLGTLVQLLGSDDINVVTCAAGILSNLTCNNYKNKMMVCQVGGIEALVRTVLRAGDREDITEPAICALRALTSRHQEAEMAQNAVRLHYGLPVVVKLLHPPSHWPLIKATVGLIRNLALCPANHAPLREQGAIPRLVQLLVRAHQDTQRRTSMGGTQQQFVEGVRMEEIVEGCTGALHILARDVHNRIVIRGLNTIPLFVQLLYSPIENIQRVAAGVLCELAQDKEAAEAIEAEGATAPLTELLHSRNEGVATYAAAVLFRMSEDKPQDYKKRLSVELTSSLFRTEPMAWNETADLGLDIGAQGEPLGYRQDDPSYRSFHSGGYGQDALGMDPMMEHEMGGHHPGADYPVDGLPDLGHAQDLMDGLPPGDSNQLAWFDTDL
Method: as §1

B1: LEF-1 amino acids 1-99 fused to Lex-A (vector BTM 116) (other, UniProt P0A7C2 1-202, looked up)
chain: MKALTARQQEVFDLIRDHISQTGMPPTRAEIAQRLGFRSPNAAEEHLKALARKGVIEIVSGASRGIRLLQEEEEGLPLVGRVAAGEPLLAQQHIEGHYQVDPSLFKPNADFLLRVSGMSMKDIGIMDGDLLAVHKTQDVRNGQVVVARIDDEVTVKRLKKQGNKVELLPENSEFKPIVVDLRQQSFTIEGLAVGVIRNGDWLMPQLSGGGGGGDPELCATDEMIPFKDEGDPQKEKIFAEISHPEEEGDLADIKSSLVNESEIIPASNGHEVVRQAPSSQEPYHDKAREHPDEGKHPDGGL
notes: Order of the fusion follows the vector; also called LEF-1/TCF-4
[1]
  binding result: binds
[2]
  binding result: binds
[3]
  binding result: no binding
